Results: paper PMC11532958

How the values were obtained:
[1] = domain-selective surface biotinylation of polarized cells; conditions: glycan lost; control: wild type
[2] = cell surface biotinylation, Western blot quantitation; conditions: glycan lost; control: wild type

In the case of “voltage-gated sodium channel β2 subunit: N42,66,74Q”, the “other: apical versus basolateral polarity of surface protein” value [1] is reported as “no change” and the localisation_or_trafficking [2] is reported as “decreases”.
